According to patent US20230381333A1 (HANMI PHARM, published 2023):
Bridge positions count the residues as written; N and C are the ends. Square brackets hold non-standard residues; d marks the D form. Ends that are not written are not given here. * marks the point of attachment. Acetyl(2-(4-imidazolyl)) = O=C(Cc1c[nH]cn1)*; Aib = CC(C)(N)C(=O)O

B1: triple agonist of SEQ ID NO: 8 (peptide)
peptide: H[Aib]QGTFTSDVSKYLDGQAAQEFVAWLLKGC
B2: triple agonist of SEQ ID NO: 10 (peptide)
peptide: H[Aib]QGTFTSDVSKYLDGQAAQEFVAWLLAGGGPSSGAPPPSC
B3: triple agonist of SEQ ID NO: 79 (peptide)
peptide: H[Aib]EGTFTSDYSIAMDEIHQKDFVNWLLAQKC
modifications: bridge 16-20
B4: triple agonist of SEQ ID NO: 91 (peptide)
peptide: {Acetyl(2-(4-imidazolyl))}-[Aib]EGTFTSDYSIAMDEIHQKDFVDWLLAEKC
modifications: bridge 15-19
B5: triple agonist of SEQ ID NO: 76 (peptide)
peptide: Y[Aib]QGTFTSDYSKYLDEKRAKDFVQWLLDHHPSSGQPPPSC
modifications: bridge 16-20
B6: triple agonist of SEQ ID NO: 95 (peptide)
peptide: Y[Aib]QGTFTSDYSKYLDEKRAKEFVQWLLCHHPSSGQPPPS
modifications: bridge 16-20
B7: triple agonist of SEQ ID NO: 74 (peptide)
peptide: {Acetyl(2-(4-imidazolyl))}-[Aib]QGTFTSDYSKCLDEKRAKEFVQWLLDHHPSSGQPPPS
modifications: bridge 15-19
B8: triple agonist of SEQ ID NO: 94 (peptide)
peptide: {Acetyl(2-(4-imidazolyl))}-[Aib]QGTFTSDYSIAMDEIHQKDFVNWLLNTKC
modifications: bridge 15-19
B9: triple agonist of SEQ ID NO: 89 (peptide)
peptide: {Acetyl(2-(4-imidazolyl))}-[Aib]QGTFTSDYSKYLDEKRQKEFVQWLLDTKC
modifications: bridge 15-19
B10: triple agonist of SEQ ID NO: 87 (peptide)
peptide: {Acetyl(2-(4-imidazolyl))}-[Aib]QGTFTSDYSIAMDEIHQKDFVNWLLNTC
modifications: bridge 15-19
B11: triple agonist of SEQ ID NO: 75 (peptide)
peptide: Y[Aib]QGTFTSDYSKYLDEKAAKEFVQWLLDHHPSSGQPPPSC
modifications: bridge 16-20
B12: triple agonist of SEQ ID NO: 85 (peptide)
peptide: {Acetyl(2-(4-imidazolyl))}-[Aib]QGTFTSDYSIAMDEIHQKDFVNWLLAQC
modifications: bridge 15-19
B13: triple agonist of SEQ ID NO: 71 (peptide)
peptide: Y[Aib]QGTFTSDYSKYLDERACKDFVQWLLDHHPSSGQPPPS
modifications: bridge 16-20
B14: triple agonist of SEQ ID NO: 90 (peptide)
peptide: {Acetyl(2-(4-imidazolyl))}-[Aib]EGTFTSDYSIAMDEIHQKDFVNWLLAQKC
modifications: bridge 15-19

The binders below were run against human GCG receptor (human, UniProt P47871 26-477) (assay: cell-based or functional assay).
human GCG receptor, sequence (P47871 26-477): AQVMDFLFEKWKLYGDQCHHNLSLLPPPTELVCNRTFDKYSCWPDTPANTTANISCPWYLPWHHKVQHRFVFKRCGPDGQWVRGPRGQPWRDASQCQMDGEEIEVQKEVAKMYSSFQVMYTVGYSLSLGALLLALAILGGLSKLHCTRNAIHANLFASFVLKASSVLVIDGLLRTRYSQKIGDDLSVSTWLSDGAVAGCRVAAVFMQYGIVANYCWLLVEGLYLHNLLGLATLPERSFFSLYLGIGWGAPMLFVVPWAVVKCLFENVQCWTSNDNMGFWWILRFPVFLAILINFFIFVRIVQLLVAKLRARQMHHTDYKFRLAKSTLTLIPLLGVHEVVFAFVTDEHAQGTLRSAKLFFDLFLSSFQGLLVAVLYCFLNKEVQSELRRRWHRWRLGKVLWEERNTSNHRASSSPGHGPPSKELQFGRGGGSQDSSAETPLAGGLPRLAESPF

Row | Binder | In vitro activity compared to native-type peptide (%), vs Glucagon [%]
1 | B1 | 0.1
2 | B2 | < 0.1
3 | B3 | 4.9
4 | B4 | 16.8
5 | B5 | 47.6
6 | B6 | 0.4
7 | B7 | 0.9
8 | B8 | < 0.1
9 | B9 | 0.7
10 | B10 | < 0.1
11 | B11 | 8.5
12 | B12 | < 0.1
13 | B13 | 12.7
14 | B14 | < 0.1

These binders were tested against human GLP-1 receptor (human, UniProt P43220 24-463) (assay: cell-based or functional assay).

Row | Binder | In vitro activity compared to native-type peptide (%), vs GLP-1 [%]
15 | B1 | 14.2
16 | B2 | 46
17 | B3 | 41.5
18 | B4 | 31.9
19 | B5 | 10.3
20 | B6 | 2.1
21 | B7 | 12.9
22 | B8 | 0.5
23 | B9 | 7.1
24 | B10 | 0.9
25 | B11 | 35.1
26 | B12 | 4.3
27 | B13 | 90.1
28 | B14 | 7.4

These binders were tested against T1, human GIP receptor (human, UniProt P48546 22-466) (assay: cell-based or functional assay).
T1 sequence (looked up): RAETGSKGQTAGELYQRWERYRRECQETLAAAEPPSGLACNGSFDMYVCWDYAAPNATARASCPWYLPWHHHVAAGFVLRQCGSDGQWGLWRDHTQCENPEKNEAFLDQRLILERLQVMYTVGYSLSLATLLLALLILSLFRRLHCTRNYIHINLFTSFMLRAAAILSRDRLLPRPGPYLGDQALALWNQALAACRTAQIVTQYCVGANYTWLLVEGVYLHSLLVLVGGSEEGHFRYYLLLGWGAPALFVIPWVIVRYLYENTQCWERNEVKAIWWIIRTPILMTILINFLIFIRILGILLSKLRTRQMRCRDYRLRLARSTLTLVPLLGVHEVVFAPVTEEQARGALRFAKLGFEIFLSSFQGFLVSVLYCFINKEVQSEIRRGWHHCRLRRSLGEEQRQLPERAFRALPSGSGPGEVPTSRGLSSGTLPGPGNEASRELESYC

Row | Binder | In vitro activity compared to native-type peptide (%), vs GIP [%]
29 | B1 | < 0.1
30 | B2 | < 0.1
31 | B3 | 1.4
32 | B4 | 0.3
33 | B5 | 11.7
34 | B6 | < 0.1
35 | B7 | 1
36 | B8 | < 0.1
37 | B9 | < 0.1
38 | B10 | < 0.1
39 | B11 | 18
40 | B12 | 0.3
41 | B13 | 94.7
42 | B14 | < 0.1
